Common to all, as to assay: ITC
For test [1], the target named is T1, C-terminal domain of Scherffelia dubia centrin, wild type (Scherffelia dubia, UniProt Q06827 93-168).
T1 sequence (looked up): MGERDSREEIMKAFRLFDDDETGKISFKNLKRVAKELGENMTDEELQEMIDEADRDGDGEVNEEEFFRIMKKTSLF

In test [2] the target is T1, C-terminal domain of Scherffelia dubia …. The source holds these as a separate data set.
Test [3] shares this target. This is another data set of the same source.
The target is the same in test [4]. This is another data set of the same source.

Like-named read-outs stand apart in the source and are kept apart here.

Take Ac-NWKLLAKGLLIRERLKR-NH2 [P17-XPC peptide]: the Ka in test [1] came out at 7.32e+07 M⁻¹; in test [2] it was 5.94e+07 M⁻¹; in test [3], 3.02e+07 M⁻¹. In addition, the dH is -23.4 kcal/mol in test [1], -23.4 kcal/mol in test [2], -33.8 kcal/mol in test [3] and -40.6 kcal/mol in test [4].

Take Ac-SQHNRQLLRGALRRWK-NH2 [R18-HsSfi1 peptide]: the Ka in test [3] turned out to be 4.5e+06 M⁻¹; in test [4] it was 1.23e+06 M⁻¹. For the same molecule, the dH in test [3] is -31.5 kcal/mol; in test [4], -37.1 kcal/mol.

The values above are taken from publication PMC3871271 (FEBS Open Bio, 2013).
